From patent publication US20220380446A1 (ABL BIO, published 2022) come the findings set out here.

Like-named read-outs stand apart in the source and are kept apart here.

As a reminder, the EC50 is the concentration needed to bring the measured effect to its halfway point. By Kd is commonly meant the equilibrium constant for the complex coming apart. Read a low Kd as tighter binding. One may read the koff as a measure of how fast the partners let go of each other. Low readings indicate slow dissociation, high ones fast dissociation. One may read the kon as the rate constant with which the complex forms.

Assay [1] addresses T1, human α-synuclein pre-formed fibrils (Human Alpha Synuclein Pre-formed Fibrils Type II, StressMarq SPR-317) (human, UniProt P37840 1-140). The assay can be described thus: sandwich ELISA, antibody coated, α-syn PFF added, 7B7-biotin detection. How it is done:
(§1) Specifically, the antibodies were diluted with PBS by six-fold serial dilution from 400 nM to 0.009 nM. The diluted antibodies were added to a 96-well plate at 100 μL/well for coating. The plate was sealed and incubated at 4° C. for 16 hours. After washing with phosphate-buffered saline with Tween® (PBS-T; 0.05% Tween® 20) five times, the plate was blocked with 5% BSA in PBS 200 μL/well at 37° C. for 2 hours. After washing with PBS-T five times, α-syn PFF (2 μg/mL, 100 μL/well in 2% BSA in PBS) was added to the plate and incubated at 37° C. for 2 hours. After washing with PBS-T five times, 7B7-biotin antibody (anti-α-syn antibody; 1 μg/mL/100 μL/well, in 2% BSA in PBS) was added and incubated at 37° C. for 2 hours. After washing with PBS-T five times, the plate was incubated with horseradish peroxidase (HRP)-bound streptavidin in PBS with 2% BSA (1:5000, 1 mg/mL stock, 20 ng/well, 100 μL/well) at 37° C. for 1 hour. After washing with PBS-T five times, 3,3′,5,5′-tetramethylbenzidine (TMB) (100 μL/well) was added and incubated at room temperature for 5 minutes. The reaction was stopped by the addition of 0.5 N H₂SO₄ (50 μL/well). Optical absorbance at 450 nm was measured by using a plate reader, with absorbance at 650 nm subtracted from the reading.
Background: ELISA stands for enzyme-linked immunosorbent assay.

Assay [2] deals with human α-synuclein oligomers (Dopamine HCL Stabilized Human Recombinant Alpha Synuclein Oligomers, StressMarq … (human, UniProt P37840 1-140)). The assay can be described thus: sandwich ELISA, antibody coated, oligomeric α-syn added, 7B7-biotin detection. The procedure:
Human α-syn oligomers from StressMarq (Dopamine HCL Stabilized Human Recombinant Alpha Synuclein Oligomers, SPR-466) was used as the oligomeric α-syn in the assay.
In this sandwich ELISA, test antibodies were diluted with PBS by five-fold serial dilution from 80 nM to 0.005 nM. The serially diluted antibodies were added to a 96-well plate at 100 μL/well for coating. The plate was sealed and incubated at 4° C. for 16 hours. After washing with PBS-T five times, the plate was blocked with 5% BSA in PBS 200 μL/well at 37° C. for 2 hours. After washing with PBS-T five times, oligomeric α-syn (2 μg/mL, 100 μL/well in 2% BSA in PBS) was added and incubated at 37° C. for 2 hours. After washing with PBS-T five times, 7B7-biotin antibody (1 μg/mL, 100 μL/well, in 2% BSA in PBS) were added and incubated at 37° C. for 2 hours. After washing with PBS-T five times, the plate was incubated with Streptavidin-HRP in 2% BSA in PBS (1:5000, 1 mg/mL stock, 20 ng/well, 100 μL/well) at 37° C. for 1 hour. After washing with PBS-T five times, TMB (100 μL/well) was added and incubated at RT for 5 minutes. The reaction was stopped by the addition of 0.5 N H₂SO₄ (50 μL/well).

In assay [3] the target is T1, human α-synuclein pre-formed fibrils …. The assay can be described thus: sandwich ELISA, antibody coated, α-syn PFF added, 7B7-biotin detection. How it is done:
as §1
This is another data set of the same source.

Assay [4] has the same target. The assay can be described thus: SPR Biacore T200, antibody captured on Protein A chip, α-syn PFF analyte, 1:1 model. How it is done:
The equipment used was Biacore® (GE Healthcare, Model T200). Protein A (GE Healthcare, Cat: 29-1275-56) was used as a chip, 10 mM glycine-HCl pH 1.5 (GE Healthcare, Cat: BR-1003-54) was used as a regeneration buffer, and HBS-EP was used as a running buffer and an analyte dilution and sample dilution buffer. […] A capture phase was carried out at a contact time of 60 seconds and a flow rate of 30 μL/min was used for a stabilization period of 60 seconds, with the target resonance units (RU) of fibril set to 10 (theoretical). In an association phase, the association time was set to 60 seconds and a flow rate was set to 60 μL/min. In a dissociation phase, the dissociation time was set to 180 seconds, and a flow rate was set to 60 μL/min. In a regeneration phase, the flow rate was set to 30 μL/min, and the regeneration time was set to 60 seconds. A 1:1 binding model was used for fitting, and the Biacore® T200 Evaluation software (GE Healthcare) was used for the evaluation.
For orientation: SPR reads the build-up and loss of mass on a sensor chip optically.

For assay [5] the target is unchanged. The assay can be described thus: sandwich ELISA, antibody coated, α-syn PFF added, 7B7-biotin detection. How it is done:
as §1
This is another data set of the same source.

For assay [6] the target is unchanged. The description is as above. How it is done: as §1
The source holds these as a separate data set.

B1: hu1E4(V2_VL2) (antibody, human IgG1, V domains shown)
VH: QVQLVQSGAEVKKPGASVKVSCKASGYTFTNYLIEWVRQAPGQGLEWIGVINPGSGGTNYNEKFKGKVTLTADKSISTAYMELSRLRSDDTAVYYCASGNYDTYWGQGTLVTVSS
VL: DVVMTQTPLSLSVTPGQPASISCRSSQSLVHSNGNTYLHWYLQKPGQSPQLLIYKVSNRFSGVPDRFSGSGSGTDFTLKISRVEAEDVGVYYCSQSTHVPRTFGQGTKLEIK
notes: Monospecific; human IgG1 and kappa constant regions
Molecule B1 gave a concentration giving a half-maximal response (EC50) in assay [1] of 570 pM.

B2: mouse hybridoma 1E4 (antibody, V domains shown)
VH: QVQLQQSGAELVRPGTSVKVSCKASGYAFTNYLIEWVKQRPGQGLEWIGVINPGSGGTNYNEKFKGKATLTADKSSSTAYMQLSSLTSDDSAVYFCASGNYDTYWGQGTLVTVSA
VL: DVVMTQTPLSLPVSLGDQASISCRSSQSLVHSNGNTYLHWYLQKPGQSPKLLIYKVSNRFSGVPDRFSGSGSGTDFTLKISRVEAEDLGVYFCSQSTHVPRTFGGGTKLEIK
notes: Mouse 1E4 made by the hybridoma; also called hy1E4; mouse 1E4 antibody
On to B2, for which, in assay [2], the EC50 was found to be 6560 pM and the Saturation point turned out to be 3.17.

B3: recombinant mouse 1E4 (antibody, V domains shown)
VH: QVQLQQSGAELVRPGTSVKVSCKASGYAFTNYLIEWVKQRPGQGLEWIGVINPGSGGTNYNEKFKGKATLTADKSSSTAYMQLSSLTSDDSAVYFCASGNYDTYWGQGTLVTVSA
VL: DVVMTQTPLSLPVSLGDQASISCRSSQSLVHSNGNTYLHWYLQKPGQSPKLLIYKVSNRFSGVPDRFSGSGSGTDFTLKISRVEAEDLGVYFCSQSTHVPRTFGGGTKLEIK
notes: also called rm1E4
B3: in assay [3], the 50% effective concentration (EC50) amounted to 2590 pM.

B4: hu1E4(V7_VL2) (antibody, human IgG1, V domains shown)
VH: QVQLVQSGAEVKKPGASVKVSCKASGYAFTNYLIEWVKQAPGQGLEWMGVINPGSGGTNYNEKFKGKATLTADKSISTAYMELSRLRSDDTAVYYCASGNYDTYWGQGTLVTVSS
VL: DVVMTQTPLSLSVTPGQPASISCRSSQSLVHSNGNTYLHWYLQKPGQSPQLLIYKVSNRFSGVPDRFSGSGSGTDFTLKISRVEAEDVGVYYCSQSTHVPRTFGQGTKLEIK
notes: as for B1
The molecule B4 returned a concentration giving a half-maximal response (EC50) in assay [1] of 339 pM.

B5: hu1E4(V3_VL2) (antibody, human IgG1, V domains shown)
VH: QVQLVQSGAEVKKPGASVKVSCKASGYAFTNYLIEWVKQAPGQGLEWIGVINPGSGGTNYNEKFKGKVTLTADKSISTAYMELSRLRSDDTAVYYCASGNYDTYWGQGTLVTVSS
VL: DVVMTQTPLSLSVTPGQPASISCRSSQSLVHSNGNTYLHWYLQKPGQSPQLLIYKVSNRFSGVPDRFSGSGSGTDFTLKISRVEAEDVGVYYCSQSTHVPRTFGQGTKLEIK
notes: as for B1
In assay [1], B5 gave a 50% effective concentration (EC50) of 577 pM.

B6: hu1E4(V3_VL2) x Grabody B (bispecific antibody, human IgG1, kappa)
heavy 1: not shown
heavy 2: not shown
light: DVVMTQTPLSLSVTPGQPASISCRSSQSLVHSNGNTYLHWYLQKPGQSPQLLIYKVSNRFSGVPDRFSGSGSGTDFTLKISRVEAEDVGVYYCSQSTHVPRTFGQGTKLEIKRTVAAPSVFIFPPSDEQLKSGTASVVCLLNNFYPREAKVQWKVDNALQSGNSQESVTEQDSKDSTYSLSSTLTLSKADYEKHKVYACEVTHQGLSSPVTKSFNRGEC
notes: also called hu1E4(V3 VL2) × Grabody B
In assay [4], B6 gave a Kd of 98.2 pM, a koff of 0.000992 s⁻¹ and an on-rate (kon) of 1.01e+07 M⁻¹ s⁻¹. The molecule also returned a 50% effective concentration (EC50) in assay [5] of 285 pM.

B7: hu1E4(V5_VL4) x Grabody B (bispecific antibody, human IgG1, kappa)
heavy 1: not shown
heavy 2: not shown
light: DVVMTQSPLSLPVTLGQPASISCRSSQSLVHSNGNTYLHWYQQRPGQSPRLLIYKVSNRFSGVPDRFSGSGSGTDFTLKISRVEAEDVGVYYCSQSTHVPRTFGGGTKVEIKRTVAAPSVFIFPPSDEQLKSGTASVVCLLNNFYPREAKVQWKVDNALQSGNSQESVTEQDSKDSTYSLSSTLTLSKADYEKHKVYACEVTHQGLSSPVTKSFNRGEC
notes: also called hu1E4(V5 VL4) × Grabody B
Take B7: in assay [4], the Kd came to 167 pM, the off-rate (koff) was found to be 0.0016 s⁻¹ and the on-rate constant (kon) is 9.96e+06 M⁻¹ s⁻¹. Besides, in assay [6], the half-maximal effective concentration (EC50) amounted to 284 pM.

B8: hu1E4(V5_VL3) x Grabody B (bispecific antibody, human IgG1, kappa)
heavy 1: not shown
heavy 2: not shown
light: DVVMTQSPLSLPVTLGQPASISCRSSQSLVHSNGNTYLHWFQQRPGQSPRRLIYKVSNRFSGVPDRFSGSGSGTDFTLKISRVEAEDVGVYYCSQSTHVPRTFGGGTKVEIKRTVAAPSVFIFPPSDEQLKSGTASVVCLLNNFYPREAKVQWKVDNALQSGNSQESVTEQDSKDSTYSLSSTLTLSKADYEKHKVYACEVTHQGLSSPVTKSFNRGEC
notes: also called hu1E4(V5 VL3) × Grabody B
B8 had an EC50 in assay [6] of 1100 pM.

B9: hu1E4(V2_VL2) x Grabody B (bispecific antibody, human IgG1, kappa)
heavy 1: not shown
heavy 2: not shown
light: DVVMTQTPLSLSVTPGQPASISCRSSQSLVHSNGNTYLHWYLQKPGQSPQLLIYKVSNRFSGVPDRFSGSGSGTDFTLKISRVEAEDVGVYYCSQSTHVPRTFGQGTKLEIKRTVAAPSVFIFPPSDEQLKSGTASVVCLLNNFYPREAKVQWKVDNALQSGNSQESVTEQDSKDSTYSLSSTLTLSKADYEKHKVYACEVTHQGLSSPVTKSFNRGEC
notes: also called hu1E4(V2 VL2) × Grabody B
B9 had an EC50 in assay [5] of 364 pM.

B10: hu1E4(V6_VL3) x Grabody B (bispecific antibody, human IgG1, kappa)
heavy 1: not shown
heavy 2: not shown
light: DVVMTQSPLSLPVTLGQPASISCRSSQSLVHSNGNTYLHWFQQRPGQSPRRLIYKVSNRFSGVPDRFSGSGSGTDFTLKISRVEAEDVGVYYCSQSTHVPRTFGGGTKVEIKRTVAAPSVFIFPPSDEQLKSGTASVVCLLNNFYPREAKVQWKVDNALQSGNSQESVTEQDSKDSTYSLSSTLTLSKADYEKHKVYACEVTHQGLSSPVTKSFNRGEC
notes: also called hu1E4(V6 VL3) × Grabody B
B10 registered an EC50 in assay [6] of 1120 pM.

B11: hu1E4(V7_VL2) x Grabody B (bispecific antibody, human IgG1, kappa)
heavy 1: not shown
heavy 2: not shown
light: DVVMTQTPLSLSVTPGQPASISCRSSQSLVHSNGNTYLHWYLQKPGQSPQLLIYKVSNRFSGVPDRFSGSGSGTDFTLKISRVEAEDVGVYYCSQSTHVPRTFGQGTKLEIKRTVAAPSVFIFPPSDEQLKSGTASVVCLLNNFYPREAKVQWKVDNALQSGNSQESVTEQDSKDSTYSLSSTLTLSKADYEKHKVYACEVTHQGLSSPVTKSFNRGEC
notes: also called hu1E4(V7 VL2) × Grabody B
In assay [4], B11 displayed a Kd of 143 pM, a koff of 0.0015 s⁻¹ and an association rate constant (kon) of 1.05e+07 M⁻¹ s⁻¹. A half-maximal effect in assay [5] (EC50) was put at 418 pM.

B12: hu1E4(V5_VL5) x Grabody B (bispecific antibody, human IgG1, kappa)
heavy 1: not shown
heavy 2: not shown
light: DVVMTQSPLSLPVTLGQPASISCRSSQSLVHSNGNTYLHWYQQRPGQSPRLLIYKVSNRFSGVPDRFSGSGSGTDFTLKISRVEAEDVGVYFCSQSTHVPRTFGGGTKVEIKRTVAAPSVFIFPPSDEQLKSGTASVVCLLNNFYPREAKVQWKVDNALQSGNSQESVTEQDSKDSTYSLSSTLTLSKADYEKHKVYACEVTHQGLSSPVTKSFNRGEC
notes: also called hu1E4(V5 VL5) × Grabody B
Take B12: in assay [4], the affinity, expressed as Kd, was 59 pM; the koff turned out to be 0.00067 s⁻¹; the kon was 1.14e+07 M⁻¹ s⁻¹. Besides, in assay [6], the response was half-maximal at 215 pM (EC50).
